These results are taken from the RNAGym collection of RNA variant scans (doi:10.7554/elife.80360).

B1: HDV Ribozyme (parent)
chain: GGCCGGCAUGGUCCCAGCCUCCUCGCUGGCGCCGGCUGGGCAACAUUCCGAGGGGACCGUCCCCUCGGUAAUGGCGAAUGGGACCCA

The data set covers variants of B1. The data set is described as follows: self-cleavage, relative activity (ratio to wild type); higher = more cleavage; co-transcriptional.
In the case of U23C C63U, the self-cleavage amounted to 0.984.

With U23C C63A, the self-cleavage was found to be 0.86.

With U23G C33G, the self-cleavage came to 0.161.

As to U23C C24A, the self-cleavage amounted to 0.287.

For U23G G29C, the self-cleavage worked out at 0.196.

Consider U23G G53C, for which the self-cleavage was 0.759.

For U23G G53U, the self-cleavage amounted to 0.866.

Turning to U23G G53A, the self-cleavage worked out at 0.306.

Regarding U23C U27A, the self-cleavage worked out at 0.898.

As for U23C U79A, the self-cleavage came to 0.554.

Regarding U23C U79C, the self-cleavage is 0.232.

For the variant C24A C33G, the self-cleavage worked out at 0.142.

For C24A C33A, the self-cleavage came out at 0.0811.

Consider C24A C33U, for which the self-cleavage stood at 0.363.

U23A U65G: the self-cleavage is 1.18.

Regarding U23A U65C, the self-cleavage turned out to be 1.09.

Consider U23A G54U, for which the self-cleavage was determined as 0.937.

Consider C24A A70C, for which the self-cleavage was determined as 0.852.

Turning to C24A A70U, the self-cleavage was determined as 0.612.

As for U23A C48G, the self-cleavage was 0.898.

Consider U23A C48U, for which the self-cleavage is 1.21.

As for U23G C26U, the self-cleavage worked out at 0.997.

On to U23A G76A, for which the self-cleavage stood at 0.978.

With C24A C64U, the self-cleavage worked out at 0.866.

In the case of C24A C64G, the self-cleavage stood at 0.749.

With C24A C30U, the self-cleavage came to 0.0723.

Consider C24A C30G, for which the self-cleavage is 0.089.

As to U23G A56C, the self-cleavage was 0.978.

U23G A56G: the self-cleavage was determined as 0.787.

For U23A C30U, the self-cleavage came out at 0.554.

Regarding U23A C30A, the self-cleavage came out at 0.466.

As for U23G G76U, the self-cleavage was determined as 1.05.

Consider U23C G82U, for which the self-cleavage is 0.312.

For the variant U23C G82A, the self-cleavage is 0.314.

For U23A C66U, the self-cleavage was 0.943.

As to U23A C66A, the self-cleavage stood at 0.883.

For the variant U23C A51C, the self-cleavage came to 1.08.

For the variant C24A A43U, the self-cleavage is 0.258.

With C24A A43G, the self-cleavage was determined as 0.256.

U23G C48A: the self-cleavage amounted to 0.807.

Take U23A G53U: the self-cleavage came out at 0.923.

Turning to U23A G53C, the self-cleavage was 1.12.

On to U23A G53A, for which the self-cleavage came to 0.95.

Consider U23G A77U, for which the self-cleavage was 0.237.

U23G A77C: the self-cleavage was 0.172.

As for C24A C36A, the self-cleavage amounted to 0.175.

In the case of C24A A42U, the self-cleavage amounted to 0.0639.

For C24A A42G, the self-cleavage is 0.166.

For the variant U23A G52U, the self-cleavage is 0.819.

For U23A G52C, the self-cleavage came to 0.946.

On to U23A A51G, for which the self-cleavage was found to be 1.01.

Turning to C24A A56G, the self-cleavage worked out at 0.404.

For U23G G59C, the self-cleavage was 0.9.

For the variant U23G G59A, the self-cleavage came out at 0.708.

Turning to U23A C24G, the self-cleavage worked out at 0.113.

For the variant U23A C63A, the self-cleavage turned out to be 0.812.

Regarding U23A C63G, the self-cleavage was found to be 0.877.

Turning to U23C C36G, the self-cleavage was found to be 0.125.

Consider U23C C36A, for which the self-cleavage amounted to 0.172.

With U23A C49A, the self-cleavage was determined as 0.538.

Take U23A C49G: the self-cleavage was found to be 1.16.

As for U23G C86A, the self-cleavage came to 0.607.

As for U23G C86G, the self-cleavage is 0.525.

On to U23G C86U, for which the self-cleavage was 0.877.

As for U23G G31A, the self-cleavage came to 0.175.

Regarding U23G G31U, the self-cleavage was found to be 0.0639.

In the case of U23A A83G, the self-cleavage turned out to be 0.767.

U23A A83U: the self-cleavage stood at 0.449.

Consider U23G C36A, for which the self-cleavage came out at 0.203.

As to U23G G38U, the self-cleavage amounted to 0.0583.

With U23G G38A, the self-cleavage was found to be 0.0923.

In the case of U23G G38C, the self-cleavage is 0.095.

As for U23G C64U, the self-cleavage worked out at 0.61.

As for U23G C64A, the self-cleavage was 0.89.

As for U23C C26U, the self-cleavage is 1.26.

Turning to U23C C26A, the self-cleavage amounted to 1.11.

For U23C G55U, the self-cleavage worked out at 1.08.

As for U23C G55C, the self-cleavage turned out to be 0.914.

For U23C G59U, the self-cleavage came out at 0.975.

As for U23C G59C, the self-cleavage worked out at 1.26.

For U23C G67U, the self-cleavage amounted to 0.743.

For U23G G40C, the self-cleavage was found to be 0.135.

Regarding U23G G40A, the self-cleavage is 0.76.

In the case of U23A C58G, the self-cleavage stood at 1.34.

Consider U23A C58U, for which the self-cleavage came out at 1.25.

On to C24A A78G, for which the self-cleavage came out at 0.492.

Take U23C C44U: the self-cleavage was 0.554.

U23A C62A: the self-cleavage amounted to 0.872.

Consider U23G A78C, for which the self-cleavage was 0.106.

Regarding U23G U46C, the self-cleavage amounted to 0.462.

Take U23G U46A: the self-cleavage was found to be 0.712.

Consider U23G A87G, for which the self-cleavage was determined as 0.645.

On to U23G G25A, for which the self-cleavage was determined as 0.142.

On to U23A C84U, for which the self-cleavage was determined as 0.762.

Turning to U23A C84G, the self-cleavage was 0.601.

For the variant C24A C32U, the self-cleavage came to 0.619.

Regarding C24A C32G, the self-cleavage was 0.213.

Turning to U23C G50U, the self-cleavage is 0.789.

Consider U23C G50C, for which the self-cleavage was 0.864.

With U23C G50A, the self-cleavage amounted to 0.95.

Turning to U23G U65A, the self-cleavage is 0.886.

With U23A C44G, the self-cleavage was 0.594.

Regarding U23A C44A, the self-cleavage worked out at 0.612.

Turning to U23A C44U, the self-cleavage is 0.566.

As for U23C G34U, the self-cleavage stood at 0.145.

Consider U23C U47A, for which the self-cleavage came to 1.03.

Regarding U23A C32A, the self-cleavage amounted to 0.251.

With U23C C86G, the self-cleavage stood at 0.95.

On to U23A A56C, for which the self-cleavage was found to be 0.929.

U23C G25A: the self-cleavage was determined as 0.101.

On to U23C G25C, for which the self-cleavage was determined as 0.138.

For U23C G25U, the self-cleavage was 0.158.

Regarding U23C U69C, the self-cleavage was 0.886.

On to U23C U37G, for which the self-cleavage worked out at 0.266.

On to U23C G31C, for which the self-cleavage is 0.141.

On to U23A U79C, for which the self-cleavage turned out to be 0.369.

Take U23A U79A: the self-cleavage was determined as 0.646.

For U23G G80C, the self-cleavage came to 0.147.

In the case of U23A G50A, the self-cleavage was 1.06.

As for U23A G50C, the self-cleavage came to 0.831.

Take U23C G28U: the self-cleavage stood at 0.249.

For U23C G28C, the self-cleavage was found to be 0.0639.

Take U23A C36A: the self-cleavage was found to be 0.177.

Regarding C24A C41U, the self-cleavage was found to be 0.354.

As to C24A C41A, the self-cleavage amounted to 0.369.

As to U23G G34C, the self-cleavage amounted to 0.0415.

On to U23A G38C, for which the self-cleavage stood at 0.192.

Regarding U23A G38A, the self-cleavage is 0.0963.

U23A G38U: the self-cleavage was 0.208.

In the case of U23C C84G, the self-cleavage turned out to be 0.739.

For U23C A77C, the self-cleavage worked out at 0.256.

As to U23A C33G, the self-cleavage worked out at 0.35.

Turning to U23C G74C, the self-cleavage is 0.277.

U23C G74A: the self-cleavage was determined as 0.217.

For U23G A42G, the self-cleavage was determined as 0.0665.

For U23G A42U, the self-cleavage amounted to 0.0997.

For the variant U23G A71G, the self-cleavage came to 0.831.

Take U23G A71C: the self-cleavage stood at 0.256.

Turning to U23G A71U, the self-cleavage turned out to be 0.633.

Turning to U23G C30A, the self-cleavage is 0.145.

U23G C30U: the self-cleavage was found to be 0.203.

With U23G C30G, the self-cleavage turned out to be 0.0536.

On to U23C G53C, for which the self-cleavage is 0.927.

With U23G U37A, the self-cleavage is 0.0678.

Turning to U23C G52U, the self-cleavage turned out to be 1.11.

On to U23C G52A, for which the self-cleavage came out at 0.906.

With U23A G80U, the self-cleavage amounted to 0.113.

Consider U23A G80A, for which the self-cleavage came to 0.18.

Turning to U23G U69G, the self-cleavage amounted to 0.431.

U23G U69A: the self-cleavage is 0.499.

For the variant U23G C44A, the self-cleavage stood at 0.0791.

On to U23G G52A, for which the self-cleavage was found to be 0.554.

As to U23C A43U, the self-cleavage is 0.298.

With C24A A77G, the self-cleavage was found to be 0.256.

Consider C24A A77U, for which the self-cleavage amounted to 0.185.

As to U23A C26G, the self-cleavage is 0.978.

U23G C63G: the self-cleavage is 0.688.

As to U23G G55A, the self-cleavage was found to be 0.67.

U23G G55U: the self-cleavage was 0.502.

Take U23G U27A: the self-cleavage was determined as 0.594.

Turning to U23G U27C, the self-cleavage is 0.511.

Regarding U23C C75A, the self-cleavage came out at 0.166.

Regarding U23C C75U, the self-cleavage was 0.0739.

Take C24A A87C: the self-cleavage was 0.645.

For the variant U23A G28U, the self-cleavage was 0.116.

In the case of C24A C26G, the self-cleavage came out at 0.858.

On to C24A C26U, for which the self-cleavage was found to be 1.05.
